{
  "source": "paper PMC3390916",
  "about": "(Chembiochem, 2011)",
  "target": "growth factor receptor-bound protein 2 (Grb2), recombinant (human, UniProt P62993 1-217)",
  "sequence (P62993 whole entry)": "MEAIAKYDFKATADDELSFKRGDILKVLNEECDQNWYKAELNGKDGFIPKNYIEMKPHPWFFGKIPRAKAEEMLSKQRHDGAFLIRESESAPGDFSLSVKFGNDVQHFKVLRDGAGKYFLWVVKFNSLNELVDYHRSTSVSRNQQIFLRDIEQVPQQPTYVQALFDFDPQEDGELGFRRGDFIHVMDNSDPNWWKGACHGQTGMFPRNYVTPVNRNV",
  "experiment": "SPR",
  "data": [
    {"binder": "YEVPPPVPPRRRGSC", "note": "[SH3-binding peptide (YEVPPPVPPRRR)]", "values": [
      {"measurement": "Kd", "value": "7.5 ± 5.7", "unit": "mM"}
    ]}
  ]
}
